Where only a bound is given, the exact number is not on record here.

Holding throughout (test): NMR
Common to all, as to settings: 300 K; not stated; 20 mM sodium phosphate; phosphoric acid (20 %) added for lower pH, NaOH (1 M) for higher pH; samples dialysed overnight; folded isolated PsbO-β, 9-14 mg/mL, free of PSII partners

Data set [1] deals with Asp90 (UniProt position 116, …).
In data set [2] the target is Glu74 (UniProt position 100, …).
In data set [3] the target is Glu64 (UniProt position 90, …).
Data set [4] has as its target Asp141 (UniProt position 167, …).
For data set [5], the target named is Glu232 (UniProt position 258, …).
The target in data set [6] is Asp79 (UniProt position 105, …).
Data set [7] concerns the target Glu210 (UniProt position 236, …).
The target of data set [8] is Asp24 (UniProt position 50, …).
Data set [9] concerns the target Glu218 (UniProt position 244, …).
Data set [10] deals with Glu54 (UniProt position 80, …).
Data set [11] addresses Asp23 (UniProt position 49, …).
The target in data set [12] is Glu84 (UniProt position 110, …).
Data set [13] addresses Asp33 (UniProt position 59, …).
Data set [14] has as its target Asp205 (UniProt position 231, …).
For data set [15], the target named is Asp99 (UniProt position 125, …).
The target in data set [16] is Glu216 (UniProt position 242, …).
The target of data set [17] is Glu98 (UniProt position 124, …).
The target of data set [18] is Glu244 (UniProt position 270, FYASIEPA---).
The target of data set [19] is Asp102 (UniProt position 128, …).
The target of data set [20] is Glu114 (UniProt position 140, …).
Data set [21] deals with Glu145 (UniProt position 171, …).

B1: PsbO-β (β-barrel construct of photosystem II manganese-stabilizing protein PsbO) (Thermosynechococcus elongatus; deletion of 1-15; deletion of 55-63 (replaced … (protein)
chain: MNHKCPTLDDTARGAYPIDSSQTYRIARLCLQPTTFLVKENGEFVPTKLVTRETTSLDQIQGELKVNSDGSLTFVEEDGIDFQPVTVQMAGGERIPLLFTVKNLVASTQPNVTSITTSTDFKGEFNVNGTKGQISLNVAKVDGRTGEIAGTFESEQLSNGHEVKIQGVFYASIEPA
The pKa is the negative logarithm of the acid dissociation constant. High values mean a group that holds its proton tightly, low ones a group that gives up its proton readily. Turning to B1, the pKa in data set [1] is reported as 1.56±0.14; in data set [2], 3.37±0.05; in data set [3] it was 4.17±0.04; in data set [4], 4.89±0.03; in data set [5], 4.20±0.10; in data set [6] it was <2.5. For the same protein, the pKa in data set [7] came to 2.66±0.12; in [8], 3.06±0.03; in data set [9] it was 5.13±0.07; in [10], 4.47±0.06; in data set [11], 3.41±0.05; in data set [12] it was 4.64±0.07. Besides, the pKa in data set [13] is 3.47±0.05; in [14] it was 3.45±0.09; in data set [15] it was <5; in data set [16] it was 3.91±0.10; in data set [17], 4.99±0.04; in data set [18], 4.97±0.08. For the same protein, the figures for the pKa in data set [19], in data set [20] and in [21] were >7, 3.81±0.08 and 4.52±0.04, respectively.

The values above are taken from paper PMC7318136.
